Data reported in the supplement of paper PMC7125110.
± gives the standard error. For part of these data: Variants at the floor of the assay were thinned out.

B1: glmS ribozyme (parent)
chain: AUAAAAGCGCCAGAACUACAGAAAUGUAGUUGACGAGGAGGAGGUUUAUCGAAUUUUCGGCGGAUGCCUCCAAA

Tests used:
Conditions in all cases: with glucosamine-6-phosphate
[1] = variants of: B1; test: kcat; higher = faster cleavage; RNA array
In short: (§1)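 Barcoded ribozyme variants were transcribed in situ on sequenced MiSeq chips by E. coli RNA polymerase. At 37 °C, a hybridised Cy3 probe tracked them while glucosamine-6-phosphate (40 μM to 10 mM) in HEPES/KCl/Mg(OAc)2 buffer flowed in and tiles were imaged over ~14 h. Per-tile medians of signals normalised to baseline and to non-cleaving reference variants were fit to one- or two-exponential decays, giving kobs. kcat and KM came from weighted Michaelis–Menten fits across concentrations.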

[2] = variants of: B1; test: self-cleavage kobs at 40 uM GlcN6P; higher = faster cleavage; RNA array
In short: as §1

[3] = variants of: B1; test: self-cleavage kobs at 160 uM GlcN6P; higher = faster cleavage; RNA array
In short: as §1

[4] = variants of: B1; test: self-cleavage kobs at 640 uM GlcN6P; higher = faster cleavage; RNA array
In short: as §1

[5] = variants of: B1; test: self-cleavage kobs at 2500 uM GlcN6P; higher = faster cleavage; RNA array
In short: as §1

[6] = variants of: B1; test: self-cleavage kobs at 10000 uM GlcN6P; higher = faster cleavage; RNA array
In short: as §1

[7] = variants of: B1; test: KM; higher = weaker cofactor use; RNA array
In short: as §1

Variant	kcat [1] [s⁻¹]	self-cleavage kobs at 40 uM GlcN6P [2] [s⁻¹]	self-cleavage kobs at 160 uM GlcN6P [3] [s⁻¹]	self-cleavage kobs at 640 uM GlcN6P [4] [s⁻¹]	self-cleavage kobs at 2500 uM GlcN6P [5] [s⁻¹]	self-cleavage kobs at 10000 uM GlcN6P [6] [s⁻¹]	KM [7] [µM]
A14G G40C	0.0146 ± 0.0059	0.000285 ± 5.8e-05	0.000739 ± 0.0001	0.00301 ± 0.00036	0.00549 ± 0.00094	0.0168 ± 0.0032	
C8A C71G	1.09e-05 ± 3.7e-06						
A39C A48G U55C	6.53e-05 ± 4.8e-06	< 1e-05				2.91e-05 ± 1.2e-05	
U31A A52G C68A	1.75e-05 ± 4.6e-06						
C58G G66U	1.05e-05 ± 2.2e-06		< 1e-05				
U31C C50A	< 1e-05	< 1e-05					
U47C C70G	0.000161 ± 3.3e-05		7.93e-05 ± 2.2e-05	0.000172 ± 3.5e-05	0.00012 ± 3e-05	0.000256 ± 0.0001	
A12G C71A	0.000639 ± 4.4e-05			7.45e-05 ± 1e-05	0.000215 ± 3.9e-05	0.00043 ± 5.9e-05	4880 ± 500
G37C A53G	3.88e-05 ± 1.1e-05	< 1e-05			5.73e-05 ± 1.6e-05	3.11e-05 ± 1.1e-05	
C11A C61A	< 1e-05						
C58U C61G	3.19e-05 ± 9.4e-06			5.03e-05 ± 1.4e-05	2.9e-05 ± 1.3e-05		
U30G C58U	5.55e-05 ± 8.1e-06					4.54e-05 ± 1.6e-05	
U30C A53G	0.000411 ± 4.1e-05			9.02e-05 ± 1.4e-05	0.000252 ± 3.6e-05	0.000328 ± 3.8e-05	2120 ± 440
A6U U30C	< 1e-05			< 1e-05	< 1e-05		
U56A C67A	0.00827 ± 0.0033	0.000132 ± 1.3e-05	0.000294 ± 4.8e-05	0.00132 ± 0.00016	0.00323 ± 0.00075	0.00678 ± 0.0011	3230 ± 1600
G29U G38C C58G C68A C71A	5.03e-05 ± 2.1e-05				8.03e-05 ± 4e-05		
G13A C16G	0.000217 ± 1.4e-05			5.02e-05 ± 1.2e-05	0.000131 ± 2.4e-05	0.000178 ± 2.5e-05	1970 ± 290
G63A U69G	6.54e-05 ± 2.8e-05		8.37e-05 ± 2.7e-05	0.000116 ± 3.3e-05	5.94e-05 ± 2.5e-05		
A12G C68G	3.14e-05 ± 6.3e-06				4.35e-05 ± 1.8e-05		
C61A C70G	1.68e-05 ± 3.8e-06						
A39G A64U	0.000215 ± 3.3e-05	< 1e-05		3.77e-05 ± 1.6e-05	8.33e-05 ± 2.5e-05	0.000168 ± 5.5e-05	3440 ± 950

Variant	kcat [1] [s⁻¹]	self-cleavage kobs at 40 uM GlcN6P [2] [s⁻¹]	self-cleavage kobs at 160 uM GlcN6P [3] [s⁻¹]	self-cleavage kobs at 640 uM GlcN6P [4] [s⁻¹]	self-cleavage kobs at 2500 uM GlcN6P [5] [s⁻¹]	self-cleavage kobs at 10000 uM GlcN6P [6] [s⁻¹]	KM [7] [µM]
A6C G29A U57G U69G	3.11e-05 ± 1.2e-05						
U54C A64U	7.19e-05 ± 1e-05				5.96e-05 ± 1.3e-05	6.16e-05 ± 1.3e-05	
G40C G63C	< 1e-05		< 1e-05		< 1e-05		
C34U G63C	< 1e-05			< 1e-05	< 1e-05		
G38A C67A	< 1e-05	< 1e-05					
C50G U65G	5.8e-05 ± 2.4e-05		4.97e-05 ± 1.7e-05		7.28e-05 ± 2.4e-05		
A52G C68U	0.000874 ± 0.00036	2.35e-05 ± 7.7e-06	9.18e-05 ± 1.1e-05	0.00015 ± 1.7e-05	0.000377 ± 4e-05	0.000858 ± 9.2e-05	
A42U G43U C61A	2.03e-05 ± 2.4e-06						
G66A C67U	0.00255 ± 0.00091	0.000173 ± 2.6e-05	0.000398 ± 6.5e-05	0.00134 ± 0.0002	0.0016 ± 0.0003	0.00498 ± 0.00098	
U57G C68G	4.47e-05 ± 1.1e-05	2.48e-05 ± 1.2e-05	4.02e-05 ± 1.5e-05	4.72e-05 ± 1.4e-05	5.88e-05 ± 1.3e-05		
A15U U49C	< 1e-05	< 1e-05		< 1e-05		< 1e-05	
A39U G41C	2.16e-05 ± 4.5e-07	< 1e-05				1.93e-05 ± 7.7e-06	1200 ± 150
U65C C67U	0.000111 ± 9.1e-06				7.62e-05 ± 2.6e-05	9.15e-05 ± 1e-05	2040 ± 650
A15C C68U	0.00105 ± 0.00025		6.98e-05 ± 8.8e-06	0.000191 ± 2.7e-05	0.000847 ± 0.00011	0.000796 ± 8.8e-05	2390 ± 860
U47G A52U	0.000286 ± 1.4e-05			6.99e-05 ± 7.7e-06	0.000169 ± 2e-05	0.000234 ± 2.6e-05	1950 ± 180
A14C C71A	0.00106 ± 0.00051	3.61e-05 ± 1.7e-05	0.000121 ± 3.2e-05	0.000194 ± 3.2e-05	0.000353 ± 5.6e-05	0.000984 ± 0.00013	
A14C G60A	< 1e-05	< 1e-05		< 1e-05			
U31A G59U	3.57e-05 ± 2.2e-06						2240 ± 490
U47G C61G	1.1e-05 ± 2e-06						
A39G G59A	0.000106 ± 2.1e-05				7.4e-05 ± 1.8e-05	8.4e-05 ± 1.1e-05	
U46C A48U	8.27e-05 ± 1.4e-05				6.44e-05 ± 1.3e-05	6.9e-05 ± 9e-06	
